The experiment addresses high affinity saturable binding sites for LDL on the human non-small cell lung tumour line L-DAN (LDL-receptors) (human (endogenous in L-DAN)) (UniProt P01130). The experiment can be described thus: radioligand binding; 125I-labelled LDL on cells of the human non-small cell lung tumour line L-DAN; saturable binding.

Chain of high affinity saturable binding sites for LDL on the human non-small cell lung tumour line L-DAN (LDL-receptors) (human (endogenous in L-DAN)) (P01130 22-860): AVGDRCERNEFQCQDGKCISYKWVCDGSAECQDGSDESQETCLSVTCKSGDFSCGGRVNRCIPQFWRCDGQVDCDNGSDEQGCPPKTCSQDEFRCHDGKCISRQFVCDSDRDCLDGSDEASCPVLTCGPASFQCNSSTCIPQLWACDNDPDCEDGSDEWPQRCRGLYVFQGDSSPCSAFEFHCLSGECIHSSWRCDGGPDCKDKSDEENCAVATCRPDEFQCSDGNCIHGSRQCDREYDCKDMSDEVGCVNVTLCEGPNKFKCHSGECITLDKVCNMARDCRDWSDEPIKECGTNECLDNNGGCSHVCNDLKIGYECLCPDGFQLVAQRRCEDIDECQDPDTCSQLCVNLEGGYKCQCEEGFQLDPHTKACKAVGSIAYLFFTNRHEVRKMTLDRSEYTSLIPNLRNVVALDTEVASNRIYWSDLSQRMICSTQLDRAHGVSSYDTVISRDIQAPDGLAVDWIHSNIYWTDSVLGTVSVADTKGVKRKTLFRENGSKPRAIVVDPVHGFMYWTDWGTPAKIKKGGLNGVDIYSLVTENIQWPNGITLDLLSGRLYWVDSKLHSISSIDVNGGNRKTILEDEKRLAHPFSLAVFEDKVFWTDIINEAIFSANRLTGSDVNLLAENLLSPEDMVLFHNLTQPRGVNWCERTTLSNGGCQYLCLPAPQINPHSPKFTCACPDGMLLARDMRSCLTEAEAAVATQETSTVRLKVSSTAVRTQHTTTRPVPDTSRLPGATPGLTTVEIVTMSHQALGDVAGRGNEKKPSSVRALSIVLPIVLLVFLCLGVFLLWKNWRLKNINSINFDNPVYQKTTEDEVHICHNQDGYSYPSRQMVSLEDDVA

Regarding “low density lipoprotein (LDL) (from UniProt P04114 28-4563)”, the Km (p ml ' (as printed, garbled)) stood at 40.
